± gives the uncertainty stated by the source.
Experiment: amyloid nucleation score (Sup35N fusion, yeast selection) (log enrichment); library NNK3; higher = more nucleation; inactive = no reads after selection
Summary of the method: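 The nucleation score, computed with DiMSum, is the log enrichment of output over input reads, centred on the mode score of non-aggregating sequences. Sequences with under 100 input reads were dropped. Reads were generated by Illumina sequencing of plasmid inserts from psi-negative yeast with Sup35N fused to peptides of 20 random codons, induced with 100 μM copper sulfate for 24 hours and grown 7 days at 30°C on medium lacking adenine and uracil.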

Row | Substance | amyloid nucleation score
1 | WLNVLNSYSDRSYLKETRLR | inactive
2 | PIYMYLFSTHVSNQFVKGAF | 3.08 ± 0.06
3 | DSRLE | inactive
4 | ALMMRLFFRIRSTMCCWVCS | inactive
5 | SYQDMLSYNRMR | inactive
6 | IEVYAGTF | inactive
7 | ILCLVAVLGASRGYVMAEWY | inactive
8 | LSYKIIYTGIGCEYAYGFIE | inactive
9 | FSTQRLNG | inactive
10 | GDMKGSISCIIKKEVINVQC | inactive
11 | YMLSGPRWFV | inactive
12 | DSNLRLYALTRCHKALHVMS | inactive
13 | SKEAVLRVNPVVTFFSGSTR | inactive
14 | LCILMMKVKVCVGNGLFLSA | inactive
15 | MNTRAVSVEFRYCARYFCHA | 0.142 ± 0.93
16 | DVLRVFLFSSFIILCVGCTY | inactive
17 | SMTWSRIAFEIMWNSVCRLI | inactive
18 | RSGFRLLIWYRKQMICLCNL | inactive
19 | CKHYVGLYKLTVWRFCGKNT | inactive
20 | RVLSCECKVGRKWICTELFV | inactive
21 | TLDVR | inactive
22 | YNCRTLNCNYQVYYFVFLSD | 3.15 ± 0.062
23 | SPSGSIVAVTPLIWR | inactive

Row | Substance | amyloid nucleation score
24 | SGYCYGFVMNDGHSSVRGDE | -0.215 ± 0.74
25 | ERSQKWVNF | inactive
26 | VNQLPRVSGAPIGLLWVCVK | inactive
27 | SMSPFRKFLTFWNMGPKRTL | -1.06 ± 2.4
28 | EVVAAYHPATDTSDRERKAL | inactive
29 | FTSDGEYNRVLPGRSQGASF | -0.92 ± 2.5
30 | IRTARNTEETMVVACMTVGV | inactive
31 | MGKVARRA | inactive
32 | QLYSHNRYTLGYTMLSRFVS | inactive
33 | NSHWWCSGFVSVVKIVAEFG | 1.23 ± 0.1
34 | DRWVQAGSHTFTFLWDCERA | inactive
35 | DVLWSGSYSSRLPGSIRDCE | inactive
36 | RKVGRLIPFHFCSN | inactive
37 | INMRFIQKRMFVYLNYSWYA | inactive
38 | WSILL | inactive
39 | TEGKAVSEV | inactive
40 | YYGVDHLLNWIPFACTARLG | inactive
41 | FYLGRLSVNGRVVQRHNESM | inactive
42 | GPVSYHMRCLYTGLSIPHLF | inactive
43 | KYGWVLFYGCYYCGHGWTNL | inactive
44 | FICILIISKGSIVPFFLRHR | inactive
45 | LDHYGLSLAHDVRRGVCCFW | 1.13 ± 0.14
46 | YRYRACSSNFYVTVFGQLHV | 2.33 ± 0.063

Row | Substance | amyloid nucleation score
47 | NYCDIYQGSNIF | inactive
48 | PSGSVCGPHHIPHVDVSGIS | inactive
49 | TLLTMTDFAIKFSHKQPGYV | inactive
50 | FSACS | inactive
51 | RDFRKSIYTCLEYYWHMVVT | inactive
52 | QYCDSMTLINQPAAIRGLLW | inactive
53 | WVGGPQNQRPANWTFGMWFH | inactive
54 | VLRFFM | 0.399 ± 0.23
55 | HLRWMTEKGPVRNVCVRGCH | inactive
56 | FVCCYVYAQQLRRRYIFNLS | inactive
57 | SCVMSWIFWNFVWCYSVRCV | inactive
58 | SKHSVAGQTKC | inactive
59 | VNCWTNYRYQGSDFIMSYIR | inactive
60 | RKSGYYLIVMRALNREPTPV | -0.363 ± 1.4
61 | IMTSFPGEFPLSLHNMCASC | inactive
62 | LPGINCARHK | -0.918 ± 1.4
63 | LGIRWLLACWVVENLDFPNI | -0.719 ± 1
64 | DFGMVLSNRFKTMKDCSYFC | 0.785 ± 0.23
65 | IVLWVFVLTITLN | inactive
66 | RGHNRRMYTWRVCRPSHHCK | inactive
67 | LCYNVKSVCGQTMLQLVE | inactive
68 | NSRLFAYKLKLVV | inactive
69 | ILRLTCLIAKHTRAVNMDLQ | inactive

Row | Substance | amyloid nucleation score
70 | NHSVNAARNLQHQSYCKKSV | inactive
71 | LSKLPTKMACPLMVRS | 0.928 ± 0.24
72 | DIRSGTLC | inactive
73 | TRVHWHR | 1.63 ± 0.1
74 | SLCMVTLDKAIRLYYNPMYF | 2.18 ± 0.08
75 | VLASWASYPTGSQSKGGERT | inactive
76 | SNLCGFCRSHVIKVMLLLSA | inactive
77 | RFIVCCKTGCVY | inactive
78 | VVYDPVICDGWALDGGVGAR | inactive
79 | GSNVNEVKNAQYTSRVGVCR | inactive
80 | YASYFSWEDCHG | inactive
81 | CSRYFRWYHVLAYCSVPNRM | inactive
82 | KLCVESRIIYTFV | inactive
83 | YIFGNFRHTSGGYCVLSVLK | inactive
84 | RYLDCFVVVLVSDFMLRYVS | inactive
85 | GSRLAGLVVYDFSLSQWYFS | 2.84 ± 0.079
86 | DDFVG | inactive
87 | YHLDIKNFHTLCWGPYFTSM | 0.789 ± 0.25
88 | EPGDRQARKSFRLSFWAQEV | 0.422 ± 0.21
89 | VIDDHMFQRKRQMVLKKQLN | inactive
90 | YHCSLQIFVLNSWMSSYKWS | 1.86 ± 0.098
91 | YRFYSNNPTRCS | inactive
92 | VSMRSTYTFG | 0.597 ± 0.51

Row | Substance | amyloid nucleation score
93 | ELSTWLAYYVRLGYWCLIMM | inactive
94 | NLVNFYYLVRAFDCELLFRG | inactive
95 | RGCGVQMS | 0.882 ± 0.24
96 | YGPQGVGLMGSLIAVISFIR | 1.12 ± 0.16
97 | GRSSRCWGGMCRGGNLCEEF | inactive
98 | ERQFMFYKVTVVIPTSHLCS | inactive
99 | CFPIASHGDSCGMIAA | inactive
100 | SLNER | inactive
101 | YAFHKTDSCCVMCVRGPAPT | inactive
102 | FSPFYCHILLH | inactive
103 | TLSSKDVYMFLDS | inactive
104 | KNKYQLN | inactive
105 | AINVRRSLTTYPNFLDTVRS | inactive
106 | CFCFARFKFR | 2.19 ± 0.071
107 | RTIYTLPSCEIEGDLWHLSG | inactive
108 | VDLRSLSPGYIDFTVISPLL | -0.952 ± 0.83
109 | NPSQSRSASWQHSYHRISGL | inactive
110 | RNLKN | inactive
111 | IAGLSNNTTDGLLRISHRYL | inactive
112 | CFDWYFDNDTRFIVGAMLVW | inactive
113 | SVDCYCTKKTYMQWSGSVRH | 0.66 ± 0.23
114 | SGNDNFYVDCNWLNIIVNET | 2.79 ± 0.078
115 | GTNFALRHGMIILSRLWAYW | inactive

Row | Substance | amyloid nucleation score
116 | LNGIEGSGY | inactive
117 | MFGFRNITK | 0.583 ± 0.2
118 | RFVYRVNNRSKVLSEARMCI | inactive
119 | WLHINGVLYIFSMAGSALSV | inactive
120 | VVWLDNKDVLTWHARCLCPM | inactive
121 | YANQHSPEHQRLSSRLVGTN | inactive
122 | SQRYLNLVPKYLSRLVMCGI | inactive
123 | VIVLNFALLRASLSAGFLMS | 0.405 ± 0.28
124 | EFRIKRNR | inactive
125 | RHTPDSLQYFLVFKVSYGFL | inactive
126 | LFFKP | inactive
127 | VWTLAAVYYIIVRYSHKIRK | inactive
128 | SFLWKIMISCYMMIVFCCVS | inactive
129 | MCVWVWI | 2.06 ± 0.092
130 | SVNSGVMIAEPDLRWCGSAT | inactive
131 | SLVWTDRNYVSTNGSSCVWL | inactive
132 | QTHMTFYVCMFRGTCNGNMC | 2.1 ± 0.051
133 | GMHCFIEPLSRVFGSNCGNY | inactive
134 | LCRLGSSRSVSGVRLGCTLR | inactive
135 | WCLHNLVSMLRDQTSRVSFP | inactive
136 | HWLTSSVKSLTPRSGQKGLD | inactive
137 | PYETGRKCNA | inactive
138 | VHVYCNWKFRDEIRANSTRR | inactive

Row | Substance | amyloid nucleation score
139 | FITTCRILWVRCTGIVNDFL | inactive
140 | TLALSKSMMYQMVINPAIY | inactive
141 | WHCLTVFILKYEVGFCSSLR | inactive
142 | HALGVSGRFDNNVVIFARGS | inactive
143 | SVVQIHAERYE | inactive
144 | GSSISRRDFNVAILFWWQGD | inactive
145 | GGCIGGSYSLERMFYSRVDE | inactive
146 | YGRLPSWIKWFFLVVYIRVL | inactive
147 | MGEMRMLVTVT | inactive
148 | GRPHEPGKFIRNSSIGSGS | -0.479 ± 1.1
149 | LFVRVCSANYFSWEYDSRVN | inactive
150 | LLMDGLIRFWS | inactive
151 | LFIRP | inactive
152 | RELVNSNALGNFLWETVCFS | inactive
153 | RSRGWDWFEVSIIVRCSMWD | inactive
154 | LVIASGRVIVIVCYV | inactive
155 | LMSFCHPDPIDFSVTGLCCR | -0.208 ± 0.39
156 | KADECS | inactive
157 | SQVVTVRCPDSSLCEIFSWG | inactive
158 | VNFSYNYVGWCFMQLCSAAN | 1.74 ± 0.086
